How the values were obtained:
human agrinC44 y4z8 = target: T1, human agrinC44 y4z8
T1 chain: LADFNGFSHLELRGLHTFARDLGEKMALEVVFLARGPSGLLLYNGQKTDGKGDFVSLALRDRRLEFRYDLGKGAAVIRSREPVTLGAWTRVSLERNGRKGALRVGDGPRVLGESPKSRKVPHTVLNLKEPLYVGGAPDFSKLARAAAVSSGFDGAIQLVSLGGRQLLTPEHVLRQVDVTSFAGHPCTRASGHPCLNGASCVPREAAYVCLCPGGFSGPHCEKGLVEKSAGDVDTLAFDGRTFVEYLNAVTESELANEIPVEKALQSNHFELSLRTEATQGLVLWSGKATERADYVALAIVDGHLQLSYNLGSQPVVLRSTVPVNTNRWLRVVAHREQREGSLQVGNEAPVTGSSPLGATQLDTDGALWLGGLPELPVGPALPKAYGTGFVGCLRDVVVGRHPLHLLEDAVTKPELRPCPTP

[1] = target: T2, neurotrypsin-resistant human agrin C44 y4z8K/A with N-terminal His8 tag (C44K/A)
T2 chain: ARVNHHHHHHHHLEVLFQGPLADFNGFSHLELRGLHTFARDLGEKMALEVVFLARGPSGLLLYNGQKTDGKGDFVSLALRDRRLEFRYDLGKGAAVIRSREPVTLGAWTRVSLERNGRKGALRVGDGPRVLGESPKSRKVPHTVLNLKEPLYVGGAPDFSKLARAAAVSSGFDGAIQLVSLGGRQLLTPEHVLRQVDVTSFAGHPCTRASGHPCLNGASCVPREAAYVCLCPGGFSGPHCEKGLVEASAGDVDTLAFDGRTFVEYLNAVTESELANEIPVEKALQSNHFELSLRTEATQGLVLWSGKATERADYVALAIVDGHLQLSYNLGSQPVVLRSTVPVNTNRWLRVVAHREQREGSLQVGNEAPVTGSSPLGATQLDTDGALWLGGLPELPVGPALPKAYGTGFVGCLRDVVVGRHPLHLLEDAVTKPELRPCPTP

[2] = target: T3, neurotrypsin-resistant mouse agrin C44 y0z8K/A (m)
T3 chain: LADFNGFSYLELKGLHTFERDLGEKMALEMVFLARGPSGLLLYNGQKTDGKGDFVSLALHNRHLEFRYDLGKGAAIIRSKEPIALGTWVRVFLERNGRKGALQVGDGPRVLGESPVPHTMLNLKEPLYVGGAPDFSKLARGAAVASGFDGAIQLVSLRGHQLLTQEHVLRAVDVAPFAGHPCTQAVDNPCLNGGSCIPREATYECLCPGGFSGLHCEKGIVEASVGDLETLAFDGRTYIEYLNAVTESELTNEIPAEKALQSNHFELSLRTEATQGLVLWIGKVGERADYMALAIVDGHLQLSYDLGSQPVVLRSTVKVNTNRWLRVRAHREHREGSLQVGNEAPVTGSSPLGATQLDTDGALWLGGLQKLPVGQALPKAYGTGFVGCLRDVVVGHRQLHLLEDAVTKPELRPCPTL

[3] = target: T4, neurotrypsin-resistant mouse agrin C44 y4z8K/A (m)
T4 chain: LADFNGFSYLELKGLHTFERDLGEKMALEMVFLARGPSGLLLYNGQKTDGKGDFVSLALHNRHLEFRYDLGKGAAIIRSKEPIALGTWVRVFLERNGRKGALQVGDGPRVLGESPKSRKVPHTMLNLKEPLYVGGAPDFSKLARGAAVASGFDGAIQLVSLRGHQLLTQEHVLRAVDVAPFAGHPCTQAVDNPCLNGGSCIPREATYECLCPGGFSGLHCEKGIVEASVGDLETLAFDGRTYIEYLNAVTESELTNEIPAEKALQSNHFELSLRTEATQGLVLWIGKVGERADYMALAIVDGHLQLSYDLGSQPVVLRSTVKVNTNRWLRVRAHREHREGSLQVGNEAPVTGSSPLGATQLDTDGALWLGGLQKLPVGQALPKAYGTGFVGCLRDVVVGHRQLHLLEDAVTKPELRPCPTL

[4] = target: T5, neurotrypsin-resistant human agrin C44 y0z8K/A (h)
T5 chain: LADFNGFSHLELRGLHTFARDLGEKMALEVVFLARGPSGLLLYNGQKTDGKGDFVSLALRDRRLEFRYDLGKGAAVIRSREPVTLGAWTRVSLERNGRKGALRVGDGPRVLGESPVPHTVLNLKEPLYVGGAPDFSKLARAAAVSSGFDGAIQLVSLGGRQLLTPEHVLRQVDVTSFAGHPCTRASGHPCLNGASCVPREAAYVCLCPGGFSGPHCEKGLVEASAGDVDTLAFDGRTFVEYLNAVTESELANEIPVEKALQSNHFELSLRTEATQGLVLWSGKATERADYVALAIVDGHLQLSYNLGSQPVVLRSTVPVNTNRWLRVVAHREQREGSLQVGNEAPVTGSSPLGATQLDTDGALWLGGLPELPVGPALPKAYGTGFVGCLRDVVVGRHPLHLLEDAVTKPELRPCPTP

[5] = target: T6, neurotrypsin-resistant human agrin C44 y4z0K/A
T6 chain: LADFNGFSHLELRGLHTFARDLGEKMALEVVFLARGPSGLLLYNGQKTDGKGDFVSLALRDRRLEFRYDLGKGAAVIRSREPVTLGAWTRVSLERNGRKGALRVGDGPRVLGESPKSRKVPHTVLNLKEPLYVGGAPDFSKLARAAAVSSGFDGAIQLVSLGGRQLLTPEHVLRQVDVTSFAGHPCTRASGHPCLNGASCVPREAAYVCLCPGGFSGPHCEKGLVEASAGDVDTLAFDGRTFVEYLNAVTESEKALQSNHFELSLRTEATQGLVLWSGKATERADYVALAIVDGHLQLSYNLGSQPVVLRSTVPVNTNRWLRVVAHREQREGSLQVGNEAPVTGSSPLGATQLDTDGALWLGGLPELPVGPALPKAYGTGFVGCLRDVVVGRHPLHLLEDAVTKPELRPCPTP

B1: human neurotrypsin (protein)
chain: FDSVLNDSLHHSHRHSPPAGPHYPYYLPTQQRPPRTRPPPPLPRFPRPPRALPAQRPHALQAGHTPRPHPWGCPAGEPWVSVTDFGAPCLRWAEVPPFLERSPPASWAQLRGQRHNFCRSPDGAGRPWCFYGDARGKVDWGYCDCRHGSVRLRGGKNEFEGTVEVYASGVWGTVCSSHWDDSDASVICHQLQLGGKGIAKQTPFSGLGLIPIYWSNVRCRGDEENILLCEKDIWQGGVCPQKMAAAVTCSFSHGPTFPIIRLAGGSSVHEGRVELYHAGQWGTVCDDQWDDADAEVICRQLGLSGIAKAWHQAYFGEGSGPVMLDEVRCTGNELSIEQCPKSSWGEHNCGHKEDAGVSCTPLTDGVIRLAGGKGSHEGRLEVYYRGQWGTVCDDGWTELNTYVVCRQLGFKYGKQASANHFEESTGPIWLDDVSCSGKETRFLQCSRRQWGRHDCSHREDVSIACYPGGEGHRLSLGFPVRLMDGENKKEGRVEVFINGQWGTICDDGWTDKDAAVICRQLGYKGPARARTMAYFGEGKGPIHVDNVKCTGNERSLADCIKQDIGRHNCRHSEDAGVICDYFGKKASGNSNKESLSSVCGLRLLHRRQKRIIGGKNSLRGGWPWQVSLRLKSSHGDGRLLCGATLLSSCWVLTAAHCFKRYGNSTRSYAVRVGDYHTLVPEEFEEEIGVQQIVIHREYRPDRSDYDIALVRLQGPEEQCARFSSHVLPACLPLWRERPQKTASNCYITGWGDTGRAYSRTLQQAAIPLLPKRFCEERYKGRFTGRMLCAGNLHEHKRVDSCQGDSGGPLMCERPGESWVVYGVTSWGYGCGVKDSPGVYTKVSAFVPWIKSVTKL
- proteolytic digestion of the agrin fragment by human neurotrypsin, SDS-PAGE (Sypro ruby); control substrate with intact β-cleavage site, cleavage implied (human agrinC44 y4z8): The mutation K to A in the β-cleavage site efficiently abolishes a cleavage of the agrin fragment
- proteolytic digestion by human neurotrypsin, SDS-PAGE (FIG. 11) [1]: the C44K/A-fragments as shown in the FIGS. 2b and 7-10 are not digested by neurotrypsin
- proteolytic digestion of the agrin fragment by human neurotrypsin, SDS-PAGE (Sypro ruby) [1]: The mutation K to A in the β-cleavage site efficiently abolishes a cleavage of the agrin fragment
- proteolytic digestion by human neurotrypsin, SDS-PAGE (FIG. 11) [2]: the C44K/A-fragments as shown in the FIGS. 2b and 7-10 are not digested by neurotrypsin
- proteolytic digestion by human neurotrypsin, SDS-PAGE (FIG. 11) [3]: the C44K/A-fragments as shown in the FIGS. 2b and 7-10 are not digested by neurotrypsin
- proteolytic digestion by human neurotrypsin, SDS-PAGE (FIG. 11) [4]: the C44K/A-fragments as shown in the FIGS. 2b and 7-10 are not digested by neurotrypsin
- proteolytic digestion by human neurotrypsin, SDS-PAGE (FIG. 11) [5]: the C44K/A-fragments as shown in the FIGS. 2b and 7-10 are not digested by neurotrypsin
